Experimental data from article PMC4004541, “PEG-Like Nanoprobes: Multimodal, Pharmacokinetically and Optically Tunable Nanomaterials” (PLoS ONE, 2014).

test system: not listed separately; assay: Elimination by whole animal surface fluorescence imaging; type: in vivo; conditions: mice, after injection, n = 6
Description: Surface fluorescence images for representative animals are shown and total surface fluorescence is quantified in bar graphs to the right of the image. […] The pharmacokinetics and biodistributions of these PN’s is further analyzed below.
Figure 3 Role PEG in determining elimination by surface fluorescence imaging. A) Animals were injected with unPEGylated peptide and imaged at the times indicated. Bar graph gives whole animal surface fluorescence determined as means and standard deviations, n = 6.
(§1) A Kodak FX multispectral imaging system was used (Carestream Molecular Imaging, Rochester, NY). Excitation at multiple wavelengths (620, 650, 690, 710, 720, 730, 750 and 760 nm) with the emission at 830 nm was setup for IR-783 spectrum; Excitation at multiple wavelengths (420, 440, 460, 480, 510, 520, 530, and 540 nm) with the emission at 600 nm was setup for Cy3 spectrum; Excitation at multiple wavelengths (450, 470, 510, 520, 530, 540, 550, 570, and 590 nm) with the emission at 700 nm was setup for mCherry; with manufacturer’s software to separate (unmix) the IR-783 spectrum, Cy3 spectrum, or mCherry spectrum from skin autofluorescence and chlorophyll fluorescence from food. X-ray images were taken after fluorescence images. […]
as §1, with “Whole animal surface fluorescence imaging: All animal experiments in this work were approved by the Institutional Review Committee of the Massachusetts General Hospital. […]” for “A Kodak FX multispectral imaging system was used (Carestream Molecular Imaging, Rochester, NY).”

**Q.** Which “Elimination seen by whole animal surface fluorescence” value does the source give for “(DOTA)Lys-Cys(IR-783) [unPEGylated DOTA peptide with IR-783 fluorochrome on the cysteine side chain]” here?
**A.** slow and incomplete elimination

test system: not listed separately; assay: Probe size (volume) by FPLC calibrated with globular protein standards; type: physicochemical; conditions: FPLC, Superdex 200 10/300GL, 0.05 M sodium phosphate, 0.1 M NaCl (0.1% Tween, pH 7.2), 0.8 ml/min; calibrated with globular protein standards
From the text: (§2) FPLC chromatograms are shown for PN’s bearing the IR-783 fluorochrome with PEG’s ranging from 2 to 40 kDa ( Figure 2A ). FPLC was calibrated with globular protein standards, and globular protein equivalent molecular volumes (in kDa) were obtained ( Table 1 , column 5). Next, these globular protein equivalent molecular volumes were converted to PN diameters in nm using the relationship: [drawing 1] where M is the molecular weight of a globular protein expressed in daltons. PN diameters ranged from 3.0 to 11.7 nm, which means PN’s can be smaller or larger than albumin (MW = 67 kDa; diameter = 5.4 nm, by the formula above). Thus Table 1 column 5 gives the PN volumes obtained from FPLC expressed in two ways: (i) as the molecular weight in kDa of globular proteins with equivalent volumes, permitting size comparison of PN’s to proteins, and, (ii) as spherical diameters (“Dia.”) in nm, permitting size comparisons of a PN to relative to other nanomaterials. We confirmed the sizes obtained with FPLC by measuring the size of PN(783)11.7 by dynamic light scattering (11.7 nm).
The mass spec of low molecular weight (MW) materials were obtained by MS-ESI Micromass (Waters) and high MW molecules were determined through MALDI-TOF analyses at the Tufts University Core Facility. RP-HPLC (Varian ProStar detector and delivery modules) employed an eluant A (0.1% TFA/water) and eluant B (0.1% TFA and 9.9% water in acetonitrile). Probe size (volume) was determined by FPLC using an ÄKTA Purifier 10 and SuperdexTM 200 10/300GL column (GE Healthcare) with a running buffer of 0.05 M sodium phosphate, 0.1 M NaCl (0.1% Tween, pH 7.2) and flow rate of 0.8 ml/min. Standards (GE Healthcare) were Ferritin, Ribonuclease A, Carbonic Anhydrase, and Conalbumin and Blue Dextran 2000. To obtain probe volumes, Mr (apparent molecular weight based on size exclusion retention) was plotted versus Kav. [drawing 7] , Vt = total volume, Ve = elution volume, Vo = void volume.
PN and peptide characterization: The mass spec of low molecular weights (MW) were obtained by MS-ESI Micromass (Waters) and high MW molecules were determined through MALDI-TOF analyses at the Tufts University Core Facility. RP-HPLC (Varian ProStar detector and delivery modules) employed an eluant A (0.1% TFA /water) and eluant B (0.1% TFA and 9.9% water in acetonitrile). […] Standards (GE Healthcare) were Ferritin, Ribonuclease A, Carbonic Anhydrase, and Conalbumin and Blue Dextran 2000. To obtain probe volumes, Mr (apparent molecular weight based on size exclusion retention) was plotted versus Kav. [picture] , Vt = total volume, Ve = elution volume, Vo = void volume.

**Q.** Which “Volume FPLC, globular protein equivalent molecular volume” value does the source give for “(DOTA)Lys(PEG40 kDa)-Cys(IR-783) [PN(783)11.7, PEG-like Nanoprobe: 40 kDa PEG, IR-783 fluorochrome, DOTA peptide]” here?
**A.** 690 kDa

**Q.** For “(DOTA)Lys(PEG 2 kDa)-Cys(IR-783) [PN(783)3.0, PEG-like Nanoprobe: 2 kDa PEG, IR-783 fluorochrome, DOTA peptide]”, which “Volume FPLC, globular protein equivalent molecular volume” value is on record?
**A.** 11.2 kDa

**Q.** Which “Volume FPLC, globular protein equivalent molecular volume” value does the source give for “(DOTA)Lys(PEG 5 kDa)-Cys(Cy3) [PN(545)4.3, PEG-like Nanoprobe: 5 kDa PEG, Cy3 fluorochrome, DOTA peptide]” here?
**A.** 35 kDa

**Q.** For “(DOTA)Lys(PEG 5 kDa)-Cys(Fl) [PN(497)4.3, PEG-like Nanoprobe: 5 kDa PEG, fluorescein, DOTA peptide]”, which “Volume FPLC, globular protein equivalent molecular volume” value is on record?
**A.** 35 kDa

same assay, conditions: globular protein equivalent volume from FPLC converted to spherical diameter by formula (ref 15)

**Q.** For “(DOTA)Lys(PEG40 kDa)-Cys(IR-783) [PN(783)11.7, PEG-like Nanoprobe: 40 kDa PEG, IR-783 fluorochrome, DOTA peptide]”, which “Volume FPLC Dia. (diameter)” value is on record?
**A.** 11.7 nm

**Q.** Which “Volume FPLC Dia. (diameter)” value does the source give for “(DOTA)Lys(PEG 2 kDa)-Cys(IR-783) [PN(783)3.0, PEG-like Nanoprobe: 2 kDa PEG, IR-783 fluorochrome, DOTA peptide]” here?
**A.** 3.0 nm

**Q.** For “(DOTA)Lys(PEG 5 kDa)-Cys(Cy3) [PN(545)4.3, PEG-like Nanoprobe: 5 kDa PEG, Cy3 fluorochrome, DOTA peptide]”, which “Volume FPLC Dia. (diameter)” value is on record?
**A.** 4.3 nm

**Q.** For “(DOTA)Lys(PEG 5 kDa)-Cys(Fl) [PN(497)4.3, PEG-like Nanoprobe: 5 kDa PEG, fluorescein, DOTA peptide]”, which “Volume FPLC Dia. (diameter)” value is on record?
**A.** 4.3 nm

test system: not listed separately; assay: Quantum yield of fluorochrome-bearing peptides and PN's; type: physicochemical; conditions: means±1 S.D.
From the text: (The p values showing significances are in Figure S2 in File S1). […] PEG attachment increased quantum yields in all cases, but as discussed below the magnitude of PEG generated improvement varied with the fluorochrome chosen. A mechanism for the PEG improvement of quantum yield is fluorochrome shielding, or the blocking of fluorochrome-fluorochrome interactions that result in quenching.
However, the magnitude of these benefits varied with the fluorochrome selected. […] Previous studies indicated PEGylated, fluorochrome-bearing peptides have absorption spectra in PBS similar to their unstacked absorption spectra in methanol. […] It appears that longer wavelength fluorochromes have stronger fluorochrome/fluorochrome stacking interactions, which result in more quenching, which is blocked by PEG and which gives rise to larger increases in quantum yield.

**Q.** For “(DOTA)Lys(PEG40 kDa)-Cys(IR-783) [PN(783)11.7, PEG-like Nanoprobe: 40 kDa PEG, IR-783 fluorochrome, DOTA peptide]”, which “Quant. Yield” value is on record?
**A.** 0.16±0.02

**Q.** For “(DOTA)Lys(PEG 2 kDa)-Cys(IR-783) [PN(783)3.0, PEG-like Nanoprobe: 2 kDa PEG, IR-783 fluorochrome, DOTA peptide]”, which “Quant. Yield” value is on record?
**A.** 0.13±0.02

**Q.** Which “Quant. Yield” value does the source give for “(DOTA)Lys(PEG 5 kDa)-Cys(Cy3) [PN(545)4.3, PEG-like Nanoprobe: 5 kDa PEG, Cy3 fluorochrome, DOTA peptide]” here?
**A.** 0.59±0.09

**Q.** For “(DOTA)Lys(PEG 5 kDa)-Cys(Fl) [PN(497)4.3, PEG-like Nanoprobe: 5 kDa PEG, fluorescein, DOTA peptide]”, which “Quant. Yield” value is on record?
**A.** 0.59±0.06

**Q.** With “(DOTA)Lys-Cys(IR-783) [unPEGylated DOTA peptide with IR-783 fluorochrome on the cysteine side chain]” as the substance, how does the “Quant. Yield” value read?
**A.** 0.053±0.008

test system: HT-29 cells; assay: Non-specific binding (NSB) to HT-29 cells by FACS; type: cell-based, human; conditions: 100 μL of nanoprobes (2 μM) added to 100 μl 2% FBS/DPBS, 30 min at 37 °C, means±1 S.D.
From the text: We next examined the non-specific binding (NSB) of PN’s to HT-29 cells based on the assumption that NSB minimization will correlate with a desirable minimization of post-IV injection retention. As noted above, after diagnostic drugs generate their added information, retention can only increase the risks of delayed toxicity. The attachment of PEG decreased the non-specific binding (NSB) to HT-29 cells, scored as the percent of cells above the cutoff for unstained cells seen with FACS ( Table 1 , column 7).
PN and peptide binding to cells (effect of PEGylation on NSB): HT-29, a human colon carcinoma cell line, was from the American Tissue Culture Collection and maintained according to their instructions. Cells were seeded on 24-well plates at 5X10^5 cells/well in culture medium (RPMI 1640 with 10% FBS) the day before the assay. The day of assay, medium was removed, wells rinsed twice with DPBS (+Ca, +Mg), and 100 μl of 2% FBS / DPBS (+Ca, +Mg) added. 100 μL of Nanoprobes (2 μM) in DPBS (+Ca, +Mg) was added to cells and incubated for 30min at 37 °C. (Probe concentrations were determined spectrophotometrically (783 nm, extinction coefficient of 314 471 cm^-1 M^-1 for IR-783; 497 nm, extinction coefficient of 68 000 cm^-1 M^-1 for Fluorescein; 545 nm, extinction coefficient of 150 000 cm^-1 M^-1 for Cy3). Cells were detached by Trypsin/EDTA and assayed for fluorescence by FACS (BD 7 laser LSR2 for nanoprobes with IR-783; BD 3 laser LSR2 for nanoprobes with Fluorescein or Cy3).
Figure S4: Effect of PEGylation on non-specific binding to cells by single channel FACS. […] Arrows indicates the cutoff for unstained cells.

**Q.** Which “Cell NSB: percent of HT-29 cells above the cutoff for unstained cells” value (“Cell NSB: percent” for short) does the source give for “(DOTA)Lys(PEG40 kDa)-Cys(IR-783) [PN(783)11.7, PEG-like Nanoprobe: 40 kDa PEG, IR-783 fluorochrome, DOTA peptide]” here?
**A.** 17±1%

**Q.** Which “Cell NSB: percent” value does the source give for “(DOTA)Lys(PEG 2 kDa)-Cys(IR-783) [PN(783)3.0, PEG-like Nanoprobe: 2 kDa PEG, IR-783 fluorochrome, DOTA peptide]” here?
**A.** 50±1%

**Q.** With “(DOTA)Lys(PEG 5 kDa)-Cys(Cy3) [PN(545)4.3, PEG-like Nanoprobe: 5 kDa PEG, Cy3 fluorochrome, DOTA peptide]” as the substance, how does the “Cell NSB: percent” value read?
**A.** 31±1%

**Q.** For “(DOTA)Lys(PEG 5 kDa)-Cys(Fl) [PN(497)4.3, PEG-like Nanoprobe: 5 kDa PEG, fluorescein, DOTA peptide]”, which “Cell NSB: percent” value is on record?
**A.** 0.2±0.1%

**Q.** For “(DOTA)Lys-Cys(IR-783) [unPEGylated DOTA peptide with IR-783 fluorochrome on the cysteine side chain]”, which “Cell NSB: percent” value is on record?
**A.** 95±1%

test system: not listed separately; assay: Size by dynamic light scattering; type: physicochemical; conditions: Nano-ZS Zetasizer, z-average
From the text: as §2
Size by dynamic light scattering: Size was obtained on a Nano-ZS Zetasizer (Malvern, Medford, MA) and is expressed as the z-average.

**Q.** For “(DOTA)Lys(PEG40 kDa)-Cys(IR-783) [PN(783)11.7, PEG-like Nanoprobe: 40 kDa PEG, IR-783 fluorochrome, DOTA peptide]”, which “Size by dynamic light scattering” value is on record?
**A.** 11.7 nm
